Test results: patent US8128802B2, “Analysis apparatus and analysis method for glycosylated hemoglobin” (OJI Paper Co., Ltd, priority 2005, dated 2012)

Tested on: human hemoglobin
Test: Proteolysis of human hemoglobin by proteases, fructosyl amino acid detected (Comparative Example 3)
Format: biochemical
Settings: 1 mg/mL protease, 37° C. for 30 minutes; assay apparatus 2
Experimental: FIG. 2 was the flow type assay apparatus for fructosyl amino acid with the dialysis module. The buffer B was pumped out from the buffer tank (24) using the pump (25), and a 100 μL portion of the sample was injected using the valve (4). The protease-immobilized enzyme column (14), the second immobilized enzyme column (19), the electrode for hydrogen peroxide (20) and the flow type calorimeter (16) were not disposed. The fructosyl amino acid oxidase-immobilized column was placed in the first immobilized enzyme column (17). The injected sample transferred with the flowing buffer B, was carried to the dialysis module (27) in the incubator (13), and only the components with low molecular weight in the sample were permeated through the regenerated cellulose membrane with the membrane thickness of 20 μm and molecular weight cut off of 12000 to 14000 to a detection system (17, 18) of the fructosyl amino acid. Since the buffer A was pumped out from the buffer tank (1) by the pump (2), the components with low molecular weight in the sample dialyzed by the dialysis module passed through the fructosyl amino acid oxidase-immobilized column (17) and the electrode for hydrogen peroxide (18), and hydrogen peroxide produced from the fructosyl amino acid in the sample was detected. […]

B1: Proteinase K: protease from Tritirachium album, Sigma-Aldrich Co. (protein, UniProt P06873 106-384, looked up)
Proteinase K: AAQTNAPWGLARISSTSPGTSTYYYDESAGQGSCVYVIDTGIEASHPEFEGRAQMVKTYYYSSRDGNGHGTHCAGTVGSRTYGVAKKTQLFGVKVLDDNGSGQYSTIIAGMDFVASDKNNRNCPKGVVASLSLGGGYSSSVNSAAARLQSSGVMVAVAAGNNNADARNYSPASEPSVCTVGASDRYDRRSSFSNYGSVLDIFGPGTSILSTWIGGSTRSISGTSMATPHVAGLAAYLMTLGKTTAASACRYIADTANKGDLSNIPFGTVNLLAYNNYQA
Result (detected value of the fructosyl amino acid after proteolysis): C (the detected value of less than 20 pA)
